Experimental data from patent publication US20110243962A1 (GENEURO, published 2011).

T1: MSRV ENV surface domain fragment (ENV-SU), recombinant from E. coli (MSRV (Multiple Sclerosis associated …))
T1 chain: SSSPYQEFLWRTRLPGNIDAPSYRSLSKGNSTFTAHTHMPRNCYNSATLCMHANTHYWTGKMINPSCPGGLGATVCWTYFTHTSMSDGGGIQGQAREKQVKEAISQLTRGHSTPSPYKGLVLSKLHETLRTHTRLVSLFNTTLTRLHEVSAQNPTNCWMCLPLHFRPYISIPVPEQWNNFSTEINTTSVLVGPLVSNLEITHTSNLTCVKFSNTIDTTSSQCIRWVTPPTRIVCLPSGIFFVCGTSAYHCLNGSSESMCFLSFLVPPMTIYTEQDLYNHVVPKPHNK

T2: MSRV complete ENV protein (ENV-T), recombinant from E. coli (MSRV (Multiple Sclerosis associated …))
T2 construct: also called ENV-T 7A; His-ENV-T
T2 chain: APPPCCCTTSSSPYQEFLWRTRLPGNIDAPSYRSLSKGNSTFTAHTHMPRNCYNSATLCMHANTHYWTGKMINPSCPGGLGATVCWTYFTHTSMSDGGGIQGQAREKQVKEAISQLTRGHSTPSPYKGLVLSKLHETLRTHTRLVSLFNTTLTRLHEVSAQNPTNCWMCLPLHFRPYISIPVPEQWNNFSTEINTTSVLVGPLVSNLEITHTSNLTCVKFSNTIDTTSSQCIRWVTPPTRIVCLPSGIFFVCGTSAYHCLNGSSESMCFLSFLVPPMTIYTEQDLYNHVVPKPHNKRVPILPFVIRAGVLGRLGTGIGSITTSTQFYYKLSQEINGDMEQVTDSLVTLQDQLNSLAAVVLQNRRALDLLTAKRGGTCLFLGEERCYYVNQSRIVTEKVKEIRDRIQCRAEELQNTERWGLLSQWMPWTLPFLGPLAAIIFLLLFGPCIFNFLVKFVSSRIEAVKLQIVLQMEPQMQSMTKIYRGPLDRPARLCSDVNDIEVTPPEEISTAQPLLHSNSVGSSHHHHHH


Legend:
[1] = biological target: T1, MSRV ENV surface domain fragment …; assay: cell-based or functional assay
[2] = biological target: T2, MSRV complete ENV protein (ENV-T), …; assay: ELISA; ENV 0.5 ug/ml coated; mAb 1 ug/ml
Protocol: (§1) Protocol: Incubation 2 h at 37° C. […] Revelation is made by adding OPD substrate and reading optic density with a spectrophotometer after 30 min (Washing steps with PBS are performed between every step).

[3] = biological target: T2, MSRV complete ENV protein (ENV-T), …; assay: ELISA; ENV 0.25 ug/ml coated; mAb 1 ug/ml
Protocol: as §1

[4] = biological target: T2, MSRV complete ENV protein (ENV-T), …; assay: ELISA; ENV 0.125 ug/ml coated; mAb 1 ug/ml
Protocol: as §1

[5] = biological target: T2, MSRV complete ENV protein (ENV-T), …; assay: ELISA; ENV 0.0078 ug/ml coated; mAb 1 ug/ml
Protocol: as §1

[6] = biological target: T2, MSRV complete ENV protein (ENV-T), …; assay: ELISA; ENV-T 7A 1 ug/ml coated; mAb 0.5 ug/ml
Protocol: as §1

[7] = biological target: T2, MSRV complete ENV protein (ENV-T), …; assay: ELISA; ENV-T 7A 1 ug/ml coated; mAb 0.25 ug/ml
Protocol: as §1

[8] = biological target: T2, MSRV complete ENV protein (ENV-T), …; assay: ELISA; ENV-T 7A 1 ug/ml coated; mAb 0.0156 ug/ml
Protocol: as §1

[9] = biological target: T2, MSRV complete ENV protein (ENV-T), …; assay: ELISA; coated ENV-T 7A 0.0625; ligand 1 microgram
Protocol: (§2) II-1d Direct ELISA on Microplates Coated with ENV Antigen (ENV-T or ENV-SU as Described Above) [0159] Microwells were coated with 100 μl per well of ENV antigen diluted in 50 mM Sodium Bicarbonate, pH 9.6. Plate were sealed and incubated 2 hours at 37° C. under light agitation. [0160] Microwells were washed 4 times with 250 μl per well of PBS (Phosphate Buffer Saline). After the last, plates were inverted and blotted on absorbent paper to remove any residual buffer. [0161] 100 μl per well of detection antibody according to the present invention (GNbAC1 or its Fab fragment) diluted in PBS+BSA 1% (PBS with 1% of Bovine Serum Albumin) were added. Plate were sealed and incubated 1 hour at room temperature under light agitation. […] Microwells were washed 4 times with 250 μl per well of PBS. After the last, plates were inverted and blotted on absorbent paper to remove any residual buffer. [0163] […] Plate were sealed and incubated 1 hour at room temperature under light agitation. [0164] Microwells were washed 6 times with 250 μl per well of PBS. After the last, plates were inverted and blotted on absorbent paper to remove any residual buffer. [0165] 100 μl par well of Substrate Solution (1 tablet of o-Phenylenediamine (OPD) diluted in 10 ml of 0.05M Phosphate Citrate Buffer pH5+10 μl H2O2 30%, prepared at the last moment) were added. Plates were incubated 30 min at room temperature in the dark. […] 50 μl per well of Stop Solution 2N H2SO₄ were added. [0167] The absorbance was read at 490 nm within 30 minutes of stopping reaction.
(§3) Env-T antigen is coated onto microtiter ELISA plate wells with serial dilutions ranging from 1 μg/ml to about 0.01 μg/ml.

[10] = biological target: T2, MSRV complete ENV protein (ENV-T), …; assay: ELISA; ENV-T 7A 1 ug/ml coated; mAb 0.03125 ug/ml
Protocol: as §1

[11] = biological target: T2, MSRV complete ENV protein (ENV-T), …; assay: ELISA; coated ENV-T 7A 0.03125; ligand 1 microgram
Protocol: as §2, §3

[12] = biological target: T2, MSRV complete ENV protein (ENV-T), …; assay: ELISA; ENV-T 7A 1 ug/ml coated; mAb concentration cell blank (top of series)
Protocol: as §1

Binder	IFN-gamma Inhibition (%) [1]	IFN-gamma Response (%) [1]	IFN-gamma pg/ml, PBMC 72 h [1]	IL-6 pg/ml, PBMC 72 h [1]	IL-6 Inhibition (%) [1]	IL-6 Response (%) [1]	optic density [2]	optic density [3]	optic density [4]	optic density [5]	optic density [6]	optic density [7]	optic density [8]	optical density [9]	optic density [10]	optical density [11]	optic density [12]
GNbAC1 murine monoclonal antibody (IgG1/kappa) (antibody, V domains shown, Murine IgG1/kappa from hybridoma; also called murine IgG1; muIgG) VH: QVQLQQSGAELVRPGAPVTLSCKASGYTFTDYEMHWVKQTPVHGLEWIGAVAPETGGTAYNQKFKGKATLTAAKSSSTAYMELRSLTSEDSAVYYCTSTVVPFAYWGQGTLVTVSA VL: QIVLTQSPAIMSASPGEKVTISCSASSSVSYMYWYQQKPGSSPKAWIYRTSNLASGVPGRFSGSGSGTSYSLTISSMEAEDAATYYCQQYQSLPLTFGSGTKLEIK	52%	48%	270 pg/mL	42200 pg/mL	52%	48%	1.87 OD	1.42 OD	0.975 OD	0.111 OD	1.85 OD	1.21 OD	0.166 OD	1.56 OD	0.406 OD	1.34 OD	2 OD
Chimeric GNb AC1 IgG1 (human IgG1 constant regions with murine VH and VL) (antibody, V domains shown, Human IgG1 heavy constant region and human kappa constant region, made in CHO cells; also called GNbAC1 chimeric IgG1; Ligand in human IgG1) VH: QVQLQQSGAELVRPGAPVTLSCKASGYTFTDYEMHWVKQTPVHGLEWIGAVAPETGGTAYNQKFKGKATLTAAKSSSTAYMELRSLTSEDSAVYYCTSTVVPFAYWGQGTLVTVSA VL: QIVLTQSPAIMSASPGEKVTISCSASSSVSYMYWYQQKPGSSPKAWIYRTSNLASGVPGRFSGSGSGTSYSLTISSMEAEDAATYYCQQYQSLPLTFGSGTKLEIK	-9%	109%	606 pg/mL	32900 pg/mL	63%	37%	2.53 OD	2.27 OD	1.82 OD	0.642 OD	2.54 OD	2.64 OD	1.27 OD	1.8 OD	1.98 OD	1.56 OD	2.54 OD
Chimeric GNb AC1 IgG4 (human IgG4 constant regions with murine VH and VL) (antibody, V domains shown, also called GNbAC1 chimeric IgG4; GNbAC1-IgC4) VH: QVQLQQSGAELVRPGASVTLSCKASGYTFTDYEMHWVKQTPVHGLEWIGAVAPETGGTAYNQKFKGKATLTAAKSSSTAYMELRSLTSEDSAVYYCTSTVVPFAYWGQGTLVTVSA VL: QIVLTQSPAIMSASPGEKVTISCSASSSVSYMYWYQQKPGSSPKAWIYRTSNLASGVPGRFSGSGSGTSYSLTISSMEAEDAATYYCQQYQSLPLTFGSGTKLEIKR	43%	57%	318 pg/mL	53000 pg/mL	40%	60%	2.26 OD	2.3 OD	1.56 OD	0.313 OD	2.49 OD	2.17 OD	0.777 OD	1.52 OD	1.26 OD	1.37 OD	2.38 OD
